The record followed here is article PMC10344781 (Nature Biotechnology, 2023).

First the molecules themselves.
B1: scFv2 displayed on yeast (scFv, V domains shown)
VH: VLLQQSGPELVKPGASVKIPCKASGYTFTDYEMDWVKQSHGKSLEWIGSINPNNGGTMYNQKFKGKATLTVDKSSSAAYMEVRSLTSEDTAVYYCARKPYYGMNAWFAYWGQGTLVTVSA
VL: IQVTQSSSSFSVSLGDRVTITCKASEDIYNRLAWYQQKPGNAPRLLISGATSLETGVPDRFSGSGSRKDYTLIITSLQTEDVATYYCQQYYALPLTFGAGTKLELK
notes: 25-D1.16 scFv (PDB 3CVH) changed at the nine randomised peptide-contact CDR residues; also called clone 2
B2: scFv12 displayed on yeast (scFv, V domains shown)
VH: B1 VH with E32D, M58I, Y101R, M103F, N104H
VL: B1 VL with A92G, L93Y
notes: 25-D1.16 scFv (PDB 3CVH) changed at the nine randomised peptide-contact CDR residues; also called clone 12
B3: scFv19 displayed on yeast (scFv, V domains shown)
VH: B1 VH with E32Y, S49T, M58V, Y101S, M103H, N104P
VL: B1 VL with L93F
notes: 25-D1.16 scFv (PDB 3CVH) changed at the nine randomised peptide-contact CDR residues; also called clone 19

Positions count from the first letter of the chain named.

The target in this experiment is T1, single-chain mouse Trp2/H2-K^b (scpMHC), biotinylated (Mus musculus, H2-Kb, UniProt P01901;P01887, biotin on the biotinylation tag (BirA)).
T1 construct: residues 180-188 of tyrosinase-related protein 2 (Trp2), mouse; linker, (G4S)3 or (G4S)4; beta2M; H2-K^b without the transmembrane domain; used as monomer, as streptavidin tetramer and on an SA chip; also called Trp2/H2-K^b tetramers; Trp2/H2-K^b monomer; source: Expi293, purified (Ni-NTA, Superdex 200)
The experiment in a line: flow cytometry on cells; yeast clones expressing TCRm scFv incubated with tenfold serially diluted target pMHC (monomer) for 1 h on ice, then streptavidin-AlexaFluor 647 for 15 min on ice. Conditions: one partner purified.
In the case of B1, the binding result is “binds”.

In the case of B2, the binding result is listed as “binds”. On to B3, for which the binding result was “binds”.
